Legend:
[1] = biological target: T1, Tmem176b表达纯化抗原142-196aa xy02b-hFc-6His(Abclonal) (mouse, UniProt Q9R1Q6 142-196); test: Biacore (SPR); antigen coupled to the chip, 6E8 as analyte at 1.5625-50 nM; mean of 3 runs
T1 construct: range 142-196; also called 体外表达纯化抗原Tmem176b; Tmem176b抗原; not shown: hFc of the xy02b-hFc-6His vector; 6His tag
T1 sequence (looked up): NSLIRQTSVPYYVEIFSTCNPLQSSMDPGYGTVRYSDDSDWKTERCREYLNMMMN

[2] = biological target: T1, Tmem176b表达纯化抗原142-196aa …; test: Capture ELISA; antibody coated at 2 μg/mL, antigen titrated from 0.1 μg/ml in 3-fold steps

- Kd [1]: 959 pM
- EC50 [2]: 0.893 ng/mL
B1: Tmem176b单克隆抗体6E8 (antibody, V domains shown)
VH: QSVEESGGRLLKPDETLTLTCTVSGFSLSSYAMSWVRQAPGKGLEWIGIISIRGNTYYASWAKGRFTISKTSTTVDLKITSPTTEDTATYFCARNTLYSSGWGGSDLWGQGTLVTVSS
VL: AQVLTQTPSPVSAAVGGTVTINCQASQSVYNNNNLAWYQQKPGQPPKLLIYYASTLASGVSSRFKGSGSGTQFTLTISGVQCDDAATYYCQGEFSCSSADCNAFGGGTEVVVKG
notes: Recombinant rabbit monoclonal antibody; also called α-Tmem176b单抗(6E8); Tmem176b单抗6E8

From patent CN117624352A (UNIV XIAMEN, dated 2024)
